Values of other authors as cited in publication PMC11417995.
One block for each substance: values may come before it.

Key:
ubiquitin (Homo sapiens) [1] = molecular target: ubiquitin (Homo sapiens) (UniProt P0CG47); experiment: TR-FRET
ubiquitin (Homo sapiens) [2] = molecular target: ubiquitin (Homo sapiens) (UniProt P0CG47); experiment: NMR
ubiquitin (Homo sapiens) [3] = molecular target: ubiquitin (Homo sapiens) (UniProt P0CG47); experiment: SPR

UBE2K UBA, sequence (P61086 157-200): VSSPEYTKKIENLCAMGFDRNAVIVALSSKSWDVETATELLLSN
UBE2K, sequence (P61086 2-200): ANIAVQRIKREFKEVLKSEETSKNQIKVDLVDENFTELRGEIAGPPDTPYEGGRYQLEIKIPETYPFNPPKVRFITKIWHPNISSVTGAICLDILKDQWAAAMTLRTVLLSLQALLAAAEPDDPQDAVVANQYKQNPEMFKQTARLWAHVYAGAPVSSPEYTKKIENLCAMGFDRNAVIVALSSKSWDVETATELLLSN
CDC34A, sequence (P49427 whole entry): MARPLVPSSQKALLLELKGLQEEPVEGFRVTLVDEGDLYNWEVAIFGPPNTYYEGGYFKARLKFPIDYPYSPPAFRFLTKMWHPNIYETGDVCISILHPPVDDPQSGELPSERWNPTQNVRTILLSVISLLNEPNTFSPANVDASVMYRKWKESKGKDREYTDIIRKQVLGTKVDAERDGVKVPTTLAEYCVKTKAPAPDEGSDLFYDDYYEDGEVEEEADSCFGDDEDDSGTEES

Kd (ubiquitin (Homo sapiens) [1]): 14 µM
Substance: CDC34A (from UniProt P49427)

Kd (ubiquitin (Homo sapiens) [2]): 1250 µM
Substance: UBE2K (from UniProt P61086)

Kd (ubiquitin (Homo sapiens) [3]): 400 µM
Substance: UBE2K UBA (from UniProt P61086)
